The source of these data is PMC7305327, “Repurposing type I–F CRISPR–Cas system as a transcriptional activation tool in human cells”.

The target in the data set is T1, PaeCascade (type I-F Csy complex: Csy1, Csy2, Csy3, Csy4 + crRNA) (Pseudomonas aeruginosa, UniProt Q02ML9;Q02MM0;Q02MM1;Q02MM2 1-434;1-327;1-342;1-187).
T1 sequence 1: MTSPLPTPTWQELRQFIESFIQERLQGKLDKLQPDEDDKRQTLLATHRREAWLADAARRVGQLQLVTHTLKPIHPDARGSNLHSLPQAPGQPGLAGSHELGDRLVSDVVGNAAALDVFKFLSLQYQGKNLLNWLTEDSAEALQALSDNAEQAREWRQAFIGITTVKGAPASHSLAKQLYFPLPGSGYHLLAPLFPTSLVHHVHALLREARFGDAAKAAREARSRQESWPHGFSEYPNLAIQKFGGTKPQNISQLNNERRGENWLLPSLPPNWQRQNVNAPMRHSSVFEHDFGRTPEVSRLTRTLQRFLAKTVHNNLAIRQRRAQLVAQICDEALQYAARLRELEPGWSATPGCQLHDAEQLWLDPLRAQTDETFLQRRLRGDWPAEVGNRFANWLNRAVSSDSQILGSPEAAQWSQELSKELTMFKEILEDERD
T1 sequence 2: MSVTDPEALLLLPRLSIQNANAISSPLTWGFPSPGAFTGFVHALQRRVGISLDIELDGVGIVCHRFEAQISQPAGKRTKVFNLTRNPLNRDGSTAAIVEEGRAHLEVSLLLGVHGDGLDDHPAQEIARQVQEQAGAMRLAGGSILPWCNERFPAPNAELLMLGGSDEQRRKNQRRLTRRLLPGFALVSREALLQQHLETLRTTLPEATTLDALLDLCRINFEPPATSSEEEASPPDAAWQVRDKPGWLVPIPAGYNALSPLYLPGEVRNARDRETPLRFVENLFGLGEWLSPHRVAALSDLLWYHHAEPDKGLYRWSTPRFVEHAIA
T1 sequence 3: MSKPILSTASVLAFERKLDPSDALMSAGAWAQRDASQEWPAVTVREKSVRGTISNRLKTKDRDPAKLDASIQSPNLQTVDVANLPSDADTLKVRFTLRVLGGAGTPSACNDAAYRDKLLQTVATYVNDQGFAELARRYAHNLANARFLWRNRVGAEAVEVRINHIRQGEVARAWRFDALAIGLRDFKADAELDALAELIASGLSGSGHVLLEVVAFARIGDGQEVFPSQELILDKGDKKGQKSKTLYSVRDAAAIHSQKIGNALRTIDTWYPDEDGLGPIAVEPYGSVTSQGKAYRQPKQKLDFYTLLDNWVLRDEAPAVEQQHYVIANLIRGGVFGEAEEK
T1 sequence 4: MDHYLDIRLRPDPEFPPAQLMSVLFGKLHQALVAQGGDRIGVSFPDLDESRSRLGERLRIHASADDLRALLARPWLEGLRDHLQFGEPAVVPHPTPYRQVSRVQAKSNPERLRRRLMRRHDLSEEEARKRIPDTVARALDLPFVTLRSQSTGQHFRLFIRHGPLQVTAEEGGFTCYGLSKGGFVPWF
As to the kind of experiment: EMSA; crRNA-loaded complex; 200 nM DNA; 1 mM EDTA; 50 mM HEPES-Na pH 7.0, 50 mM NaCl, 1 mM DTT, 1 mM EDTA, 10 IU RNase inhibitor, 200 nM dsDNA, 37 C 30 min; non-denaturing TBE-PAGE, GelRed stain. Conditions: protein: recombinant; copies: 1;1;6;1; blunt. (In EMSA bound probe runs differently from free probe, usually more slowly.)

B1: type I-F EMSA target dsDNA (dsDNA)
DNA 1: CTATCGAAGCAATACAGGTAGACGCGGACATCAAGCCCGCCGTGAAGGTGCAGCTTCTC
DNA 2: GAGAAGCTGCACCTTCACGGCGGGCTTGATGTCCGCGTCTACCTGTATTGCTTCGATAG
Turning to B1, the binding result is given as “binds”.
